These results are taken from patent US20100105567A1, “NOVEL CAPTURE AGENTS FOR BINDING A LIGAND” (priority 2005, published 2010).

What all share (format): physicochemical
The nature of series [1]: pH resistance of peptide deposited onto polypropylene. The following applies: maximal retention at low and high pH, minimal around pH 6.5. The procedure:
The pH resistance of peptide 2DOS-2 (see above) deposited onto a polypropylene hydrophobic surface was investigated:
Twelve 50 μl aliquots of peptide 2DOS-2 in 10 mM tris-HCl (pH 8.0) in 50% (v/v) aqueous acetonitrile were dried down in the wells of a Costar microtitre plate.
(§1) The peptide samples were allowed to evaporate to dryness in the dark.
The dried peptide samples in the first eleven wells were incubated with 200 μl of 100 mM phosphate buffer for 30 minutes at room temperature according to the scheme shown in Table 7:
All supernatants were pipetted off and the residual surface-bound peptides in all twelve wells were finally resuspended in 50 μl of 10,mM tris-HCl (pH 8.0) in 50% (v/v) aqueous acetonitrile and the microtitre plate was imaged at 200 μm resolution on a Typhoon Trio Plus variable mode imager (Amersham Biosciences) with the green (532 nm) laser and the 580 BP 30 filter at the PMT voltages indicated below and at normal sensitivity. The scan height was set at +3 mm and the sample was pressed during scanning.
(§2) The fluorescence images were analysed using ImageQuant TL v2003.03 (Amersham Biosciences).
Quantification data for peptide 2DOS-2 retention (using data from the 300V scan) are given in Table 8 and graphically in FIG. 16: […]

The nature of series [2]: Time-dependent persistence of peptide on polypropylene in aqueous buffer. The note with it: 1 M NaCl/10 mM tris-HCl (pH 8.0). The procedure: The time-dependent persistence of peptide 2DOS-2 (see above) deposited onto a polypropylene hydrophobic surface in the presence of aqueous buffer was investigated as shown below:
Twelve 100 μl aliquots of 5 μM peptide 2DOS-2 in 5 mM tris-HCl (pH 8.0) in 75% (v/v) aqueous acetonitrile were dispensed to the wells of the top row of a Costar microtitre plate.
as §1
The dried peptide samples in wells 1-10 were incubated with 250 μl of 1 M NaCl in 10 mM tris-HCl (pH 8.0) for the time indicated below at room temperature. All supernatants were pipetted up and down 8 times after incubation and the supernatants were then removed and placed in the wells of the bottom row of the microtitre plate. […]
as §2
Fluorescence data for the time-dependent persistence of peptide 2DOS-2 deposited onto a polypropylene hydrophobic surface in the presence of aqueous buffer are shown in FIG. 17: […]

The nature of series [3]: Retention of arrayed peptides on a polypropylene sheet after successive washes. The following applies: for Corrected signal: slide background subtracted. The procedure: Further experiments were undertaken to investigate the retention of peptides P1-1 to P1-5 and P2-1 to P2-2, shown in Table 3, on a polypropylene surface.
The polypropylene sheet was wiped with 50% (v/v) aqueous acetonitrile prior to use.
8×replicate 20 nl volumes of 1 μM peptides P1-1 to P1-5 and P2-1 to P2-2 and TAMRA in dimethyl sulphoxide (DMSO) were dispensed at 1 mm spacing to a 3″×1″×1 mm polypropylene sheet using the Piezorray system (PerkinElmer LAS). 500 drops were pre-dispensed using the ‘side shoot’ option and the tuning was set to 72V for 30 μs.
The slide was imaged at 10 μm resolution on a Typhoon Trio Plus variable mode imager (Amersham Biosciences) with the green (532 nm) laser and the 580 BP 30 filter at a PMT voltage of 600 V and at normal sensitivity. The scan height was set at the platen and the samples were pressed during scanning. The fluorescence image was analysed using ImageQuant TL v2003.03 (Amersham Biosciences).
The lower half of the slide (containing the test array) was then washed in 100 ml of 1 M NaCl containing 10 mM tris-HCl (pH 8.0) for one minute and were re-scanned as described above.
The same half of the slide was then washed for a second time in 100 ml of 1 M NaCl containing 10 mM tris-HCl (pH 8.0) for 30 minutes and re-scanned as described above.
The same half of the slide was then washed for a third time in 100 ml of water for 30 minutes and re-scanned as described above.

Setting [4] is: Control array (not washed), scan after first wash.
The mark [5] stands for this setting: Control array (not washed), scan after second wash.
Where [6] appears, read: Control array (not washed), scan after third wash.
Where [7] appears, read: Test array, after first wash (1 M NaCl, 10 mM tris-HCl pH 8.0, one minute).
[8] abbreviates: Test array, after second wash (1 M NaCl, 10 mM tris-HCl pH 8.0, 30 minutes).
The mark [9] stands for this setting: Test array, after third wash (water, 30 minutes).

No end group written: not given here. TAMRA = rhodamine dye label at the N-terminus (mixture of 5- and 6-isomers)

Take “N-TAMRA-Phe-Asp-Phe-Ala-Phe-Ser-Phe-Lys-Phe-C ({TAMRA}-FDFAFSFKF; not fully specified (C-terminus)) [Peptide 2DOS-2]”: the “retention on a polypropylene surface versus pH (in words)” value in series [1] is given as “stable over a broad range of pH values”. In addition, the “retention on a hydrophobic polypropylene surface over time (in words)” value in series [2] is recorded as “stable for extended periods of time”.
With “TAMRA-F-G-F-G-F-G-F-G-F-G-F-S-F-A-F-D-F-G-F ({TAMRA}-FGFGFGFGFGFSFAFDFGF) [Peptide P1-5]”, the Average fluorescence in series [3] (setting [4]) was 199,347,483; in series [3] (setting [5]), 190,847,825; in series [3] (setting [6]) it was 183,492,293; in series [3] (setting [7]), 201,991,732; in series [3] (setting [8]), 167,865,473; in series [3] (setting [9]), 147,812,043. The Corrected signal in series [3] (setting [4]) is on record as 52,655,810; in series [3] (setting [5]) it was 53,567,975; in series [3] (setting [6]), 49,585,053; in series [3] (Test array, after first wash) it was 47,493,774; in series [3] (Test array, after second wash), 35,418,169; in series [3] (Test array, after third wash) it was 23,514,817. Moreover, in series [3] (compared among P1-1 to P1-5, chain length of 19 amino acids), the “retention on polypropylene sheet (in words)” value is recorded as “highest retention”.
On to “TAMRA-F-G-F-G-F-S-F-A-F-D-F-G-F ({TAMRA}-FGFGFSFAFDFGF) [Peptide P1-2]”, for which the Average fluorescence in series [3] (setting [4]) is reported as 200,280,129; in series [3] (setting [5]), 196,080,891; in series [3] (setting [6]) it was 185,727,868; in series [3] (setting [7]), 170,078,218; in series [3] (setting [8]), 135,695,639; in series [3] (setting [9]) it was 126,193,156. Moreover, the Corrected signal in series [3] (setting [4]) is 53,588,457; in series [3] (setting [5]) it was 58,801,042; in series [3] (setting [6]) it was 51,820,628; in series [3] (Test array, after first wash) it was 15,580,260; in series [3] (Test array, after second wash) it was 3,248,336; in series [3] (Test array, after third wash) it was 1,895,931.
For the substance “TAMRA-F-G-F-G-F-G-F-G-F-S-F-A-F-D-F-G-F ({TAMRA}-FGFGFGFGFSFAFDFGF) [Peptide P1-4]”, the Average fluorescence in series [3] (setting [4]) is on record as 187,287,630; in series [3] (setting [5]), 179,942,418; in series [3] (setting [6]), 176,102,487; in series [3] (setting [7]) it was 189,823,310; in series [3] (setting [8]), 159,100,527; in series [3] (setting [9]), 135,681,173. The Corrected signal in series [3] (setting [4]) is 40,595,958; in series [3] (setting [5]), 42,662,569; in series [3] (setting [6]) it was 42,195,247; in series [3] (Test array, after first wash) it was 35,325,352; in series [3] (Test array, after second wash) it was 26,653,223; in series [3] (Test array, after third wash) it was 11,383,947.
Regarding “TAMRA-F-G-F-S-F-A-F-D-F-G-F ({TAMRA}-FGFSFAFDFGF) [Peptide P1-1]”, the Average fluorescence in series [3] (setting [4]) is 244,263,013; in series [3] (setting [5]) it was 225,863,933; in series [3] (setting [6]), 218,342,010; in series [3] (setting [7]), 157,624,537; in series [3] (setting [8]), 127,216,792; in series [3] (setting [9]), 124,941,941. Besides, the Corrected signal in series [3] (setting [4]) is listed as 97,571,341; in series [3] (setting [5]) it was 88,584,083; in series [3] (setting [6]), 84,434,769; in series [3] (Test array, after first wash) it was 3,126,578; in series [3] (Test array, after second wash), −5,230,512; in series [3] (Test array, after third wash) it was 644,716.
In the case of “TAMRA-F-G-F-G-F-G-F-S-F-A-F-D-F-G-F ({TAMRA}-FGFGFGFSFAFDFGF) [Peptide P1-3]”, the Average fluorescence is recorded as 192,743,469 in series [3] (setting [4]); 187,310,655 in series [3] (setting [5]); 184,219,147 in series [3] (setting [6]); 171,197,973 in series [3] (setting [7]); 148,725,456 in series [3] (setting [8]); 125,717,642 in series [3] (setting [9]). In addition, the Corrected signal in series [3] (setting [4]) is listed as 46,051,796; in series [3] (setting [5]), 50,030,806; in series [3] (setting [6]), 50,311,907; in series [3] (Test array, after first wash), 16,700,014; in series [3] (Test array, after second wash), 16,278,152; in series [3] (Test array, after third wash) it was 1,420,417.
